Measured values published in PMC4359589.

Target: VipB (Vibrio cholerae)
Experiment: cryo-EM structure

Substance: VipA (natural protein)
- stoichiometry N: 1
